Data on 66 sequences can be found in the supplement of paper PMC10126150.

± gives the standard deviation of the averaged measurements.
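Also: ATP exposure 15 min at 22 °C before imaging.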

For this data set, the system named is ATP. The data set is described as follows: switch fluorescence ratio, 500 uM ATP over buffer (Cy3 cluster intensity, sum of 5 cycles each) (fold (ratio)); higher = stronger signal-on switching upon ATP binding; sequences stand for … in TCGTCGGCAGCGTCAGATGTGTATAAGAGACAGTTTTTTTTTTTTTTTTTTTTTTTTT…TC. Particulars: aptamer strand: ATP DNA aptamer (quencher-CACCTGGGGGAGTATTGCGGAGGAAGG + anchor), 100 nM annealed; ATP concentration: 500 uM. The method in brief: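 The quencher-labelled ATP aptamer, at 100 nM, was annealed to Cy3-labelled switching-strand clusters on a modified Illumina MiSeq flow-cell. The clusters were imaged in selection buffer, then after 15 min with 500 uM ATP at 22 °C, and this buffer/ATP cycle ran five times with NaOH stripping and re-annealing between runs. Per-cluster fluorescence ratios, summed target-cycle over summed buffer-cycle Cy3 intensity, were averaged per switch-domain sequence. Clusters outside 100-1000 RFU were excluded.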
Turning to CAGGTAGGAG, the switch fluorescence ratio was found to be 0.985 ± 0.017.
In the case of ATTCTTCTTA it was 1.028 ± 0.0033; in that of TAATTCGACT, 1.02 ± 0.029; in that of CACGTGTGGT, 0.988 ± 0.036.
In the case of GCCGAATCTG it was 1 ± 0.02; in that of ATCGTCGGTA, 1.03 ± 0.017; in that of ACGTTGGTAA, 1.02 ± 0.032.
As for ATGGATCACC, the switch fluorescence ratio worked out at 1.019 ± 0.0027.
As for TTTGACCAGG, the switch fluorescence ratio turned out to be 1.02 ± 0.045.
For TGTATTAAAG, the switch fluorescence ratio amounted to 0.983 ± 0.029.
Next, TGATCTGGGG: 1.01 ± 0.033.
In the case of GGGTTTGTAC it was 1.13 ± 0.12.
Next, CGGGGCTGGC: 1.2 ± 0.13; GCGGGGAGGG: 1.05 ± 0.033; AAGGTTGCGT: 0.986 ± 0.04.
In the case of AAGGAGGTCA, the switch fluorescence ratio was 0.977 ± 0.021.
In the case of TGATTGCTAT it was 1.01 ± 0.039.
Next, TTACGTTGGG: 0.997 ± 0.035; GAATGGGTCC: 1.01 ± 0.029; TTTCAGGTAA: 0.988 ± 0.017.
In the case of GTAAAAAAAG it was 1.09 ± 0.086.
For AAGTATATTT, the switch fluorescence ratio was 1.001 ± 0.0047.
With GGTGATAAAT, the switch fluorescence ratio amounted to 0.991 ± 0.025.
Next, ATCGGAAAG: 1.65 ± 0.92; ATAAGACTGG: 0.9819 ± 0.0053.
With GACTATCGGA, the switch fluorescence ratio worked out at 1.03 ± 0.013.
Regarding TGGGATTTCA, the switch fluorescence ratio came out at 0.979 ± 0.045.
In the case of ATTCTTATTG it was 0.9801 ± 0.0021.
For the sequence AACAGGATCG, the switch fluorescence ratio came to 1.01 ± 0.053.
Next, TTCTTTGTGA: 1 ± 0.054.
In the case of TATACCTAGG it was 1.003 ± 0.0065; in that of CAAATTGGAC, 1.03 ± 0.0071; in that of GACTGGCTGG, 1 ± 0.03.
TTATCTGTTA: the switch fluorescence ratio was determined as 1.014 ± 0.0018.
In the case of GCGCTTACTA it was 1.31 ± 0.079.
Next, GGGGGGCAAC: 1.03 ± 0.099; CCTGAGTCGT: 1.09 ± 0.017.
Next, TTTCGAGGGA: 1 ± 0.025; TTCCGATGGA: 1.33 ± 0.26.
Take TGGGAGAGGA: the switch fluorescence ratio was 1.02 ± 0.049.
Next, GGTTCAATCT: 0.9815 ± 0.0012.
With TCGGGACGGG, the switch fluorescence ratio came out at 1.01 ± 0.013.
As for GTAGTAATTG, the switch fluorescence ratio was 1.075 ± 0.0065.
In the case of TAAGGTACAT it was 1.09 ± 0.012; in that of TTGAAGAAAA, 1.97 ± 1.3.
For TTTGGGGTTA, the switch fluorescence ratio turned out to be 0.996 ± 0.034.
Next, ATTTTTTCGC: 0.995 ± 0.015; TTAGTGAAGG: 1.01 ± 0.023.
For the sequence GTAATTTGCA, the switch fluorescence ratio came out at 0.9986 ± 0.0055.
GTTCCGGCGT: the switch fluorescence ratio stood at 1.21 ± 0.25.
Next, GCCTGGTTGG: 0.995 ± 0.015; ATTTTTATCC: 1.022 ± 0.0068; ATGCCTCGGG: 1.02 ± 0.032.
Next, CCTCTTCATA: 2.54 ± 0.28.
For TGCAGCTGGT, the switch fluorescence ratio worked out at 0.98 ± 0.021.
In the case of AAAGTTTCAT it was 0.991 ± 0.034.
Next, CGGTAGGATC: 0.995 ± 0.03; ATAGTGGACA: 0.9867 ± 0.0019.
Regarding CCTTATTTCT, the switch fluorescence ratio is 1 ± 0.031.
In the case of AATGATTAGT it was 0.998 ± 0.032; in that of TGGGACCCTT, 1.06 ± 0.023; in that of GTTTGTGGAC, 0.997 ± 0.035.
As for GGCTGTCGGA, the switch fluorescence ratio was determined as 0.997 ± 0.0034.
With AGATTCATGT, the switch fluorescence ratio turned out to be 0.988 ± 0.018.
Next, TCGGGTGTTG: 1.03 ± 0.048; CGATATGTAG: 1.016 ± 0.0045.
